Molecular target: T1, VASH2_(1–355)(C158A)/SVBP_(1–66) (Mus musculus, UniProt Q8C5G2 1-355; Q99LQ4 1-66, C158A)
T1 construct: SVBP, Mus musculus, residues 1-66; also called VASH2(C158A)/SVBP; source: Sf9, co-expressed (baculovirus), purified (Ni-NTA, heparin, SEC); not shown: His-tag, N-terminal, cleaved
Test: crystal structure; tail peptide (1 mM) co-crystallized with VASH2 1–355(C158A)/SVBP 1–66 (5 mg/ml), 2.5 Å; 0.1 M HEPES pH 7.0, 1 M (NH4)2SO4, 1.105 M KCl, 18 °C
Conditions: both partners purified

T1 sequence (Q8C5G2 whole entry C158A, chain 1 of 2, the tested form may be a part): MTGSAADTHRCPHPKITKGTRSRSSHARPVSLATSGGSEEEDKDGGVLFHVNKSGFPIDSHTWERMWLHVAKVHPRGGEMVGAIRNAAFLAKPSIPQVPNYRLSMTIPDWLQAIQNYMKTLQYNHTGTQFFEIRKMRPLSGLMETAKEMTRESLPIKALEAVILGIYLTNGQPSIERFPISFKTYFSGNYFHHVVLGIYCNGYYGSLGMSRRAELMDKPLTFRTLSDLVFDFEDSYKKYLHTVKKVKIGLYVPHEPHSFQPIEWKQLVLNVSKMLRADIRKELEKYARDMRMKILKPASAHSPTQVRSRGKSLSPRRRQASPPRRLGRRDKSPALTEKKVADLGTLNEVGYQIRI
T1 sequence (Q99LQ4 whole entry, chain 2 of 2, the tested form may be a part): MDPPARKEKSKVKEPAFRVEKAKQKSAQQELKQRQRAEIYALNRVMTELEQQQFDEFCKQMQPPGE

binding result: binds
B1: α-tubulin C-terminal tail peptide (VDSVEGEGEEEGEEY) (peptide)
peptide: VDSVEGEGEEEGEEY
notes: C-terminal tail of α-tubulin; Only the last five residues (EGEEY) were built in the crystal structure; also called tubulin tail; full-length tail; source: synthetic peptide (Biosynthesis)

From paper PMC6642083, “Structural basis of tubulin detyrosination by VASH2/SVBP heterodimer” (Nature Communications, 2019)
